Measurements from PMC5387714.

Assays:
Phe176 CD16a (human) [1] = molecular target: Phe176 CD16a (human) (UniProt P08637); experiment: MST; ligands (HER2, CD16a, FcRn) labelled with RED-NHS; 10 μL labelled ligand mixed with 10 μL gradient mAb; Monolith NT.115, 40% IR-laser power; fit with the Hill equation in Prism
Human FcRn (human) = Human FcRn (human) (UniProt P55899); experiment: as above
Val176 CD16a (human) = Val176 CD16a (human) (UniProt P08637); experiment: as above
Phe176 CD16a (human) [2] = molecular target: Phe176 CD16a (human) (UniProt P08637)

UniProt P55899, sequence (P55899 24-297): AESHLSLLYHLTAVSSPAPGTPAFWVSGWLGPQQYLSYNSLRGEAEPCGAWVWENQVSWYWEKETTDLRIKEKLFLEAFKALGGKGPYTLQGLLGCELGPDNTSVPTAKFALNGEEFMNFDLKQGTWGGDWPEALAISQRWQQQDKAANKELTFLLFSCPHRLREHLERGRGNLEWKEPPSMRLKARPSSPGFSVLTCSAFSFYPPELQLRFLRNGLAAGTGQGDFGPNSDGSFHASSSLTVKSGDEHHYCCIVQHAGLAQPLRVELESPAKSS

Row | Kd (Phe176 CD16a (human) [1]) | Kd (Human FcRn (human)) | Kd (Val176 CD16a (human)) | ADCC (LDH release), SK-BR-3 target cells, human PBMCs as effector cells, E/T 50/1; fold against pertuzumab^Fuc+SA+; allotype of the donors' FcγRIIIa not stated (Phe176 CD16a (human) [2]) | Substance
1 | 1.31 nM | 0.86 nM | 0.35 nM | – | Pertuzumab^Fuc+SA+ (antibody)
2 | 0.45 nM | 0.83 nM | – | – | Pertuzumab^Fuc+SA− (antibody)
3 | 0.29 nM | 0.84 nM | – | – | Pertuzumab^Fuc−SA+ (antibody)
4 | 0.13 nM | 0.82 nM | 0.02 nM | 20 fold | Pertuzumab^Fuc−SA− (antibody)
